Changes are numbered by the printed parent chain.
B1: human IL-18 binding protein (IL-18BP) (other, UniProt O95998 31-194, looked up)
chain: TPVSQTTTAATASVRSTKDPCPSQPPVFPAAKQCPALEVTWPEVEVPLNGTLSLSCVACSRFPNFSILYWLGNGSFIEHLPGRLWEGSTSRERGSTGTQLCKALVLEQLTPALHSTNFSCVLVDPEQVVQRHVVLAQLWAGLRATLPPTQEALPSSHSSPQQQG
B2: mouse IL-18BP (other, UniProt Q9Z0M9 29-193, looked up)
chain: TSAPQTTATVLTGSSKDPCSSWSPAVPTKQYPALDVIWPEKEVPLNGTLTLSCTACSRFPYFSILYWLGNGSFIEHLPGRLKEGHTSREHRNTSTWLHRALVLEELSPTLRSTNFSCLFVDPGQVAQYHIILAQLWDGLKTAPSPSQETLSSHSPVSRSAGPGVA

Key:
Experiment in all cases: cell-based or functional assay
IL-18 variant G3T, M60K = molecular target: T1, IL-18 variant G3T, M60K (human, UniProt Q14116 37-193)
T1 chain: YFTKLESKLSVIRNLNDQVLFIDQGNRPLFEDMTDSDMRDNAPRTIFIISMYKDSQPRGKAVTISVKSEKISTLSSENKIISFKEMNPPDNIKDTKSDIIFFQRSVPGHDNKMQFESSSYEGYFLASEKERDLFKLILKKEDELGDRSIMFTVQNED

IL-18 variant G3V, M60K = molecular target: T2, IL-18 variant G3V, M60K (human, UniProt Q14116 37-193)
T2 chain: T1 chain with T3V

WT IL-18-MonoFc = WT IL-18-MonoFc (human)
[1] = molecular target: T3, IL-18 variant G3T, M60K, D157E (human, UniProt Q14116 37-192)
T3 chain: T1 chain with D157E

IL-18 variant G3T, K53S = molecular target: T4, IL-18 variant G3T, K53S (human, UniProt Q14116 37-193)
T4 chain: T1 chain with K53S, K60M

[2] = molecular target: T5, IL-18 variant G3H, N91V, K53S (human, UniProt Q14116 37-193)
T5 chain: T1 chain with T3H, K53S, K60M, N91V

WT human IL-18 [3] = molecular target: T6, WT human IL-18 (human, UniProt Q14116 37-193)
T6 sequence: T1 chain with T3G, M38C, K60M, S68C, S76C, S127C

IL-18 variant G3E, K53S [4] = molecular target: T7, IL-18 variant G3E, K53S (human, UniProt Q14116 37-193)
T7 chain: T1 chain with T3E, K53S, K60M

[5] = molecular target: T5, IL-18 variant G3H, N91V, K53S
WT human IL-18 [6] = molecular target: T6, WT human IL-18; remark: listed apart in the source
IL-18 variant G3E, K53S [7] = molecular target: T7, IL-18 variant G3E, K53S
IL-18 variant G3R, K53S = molecular target: T8, IL-18 variant G3R, K53S (human, UniProt Q14116 37-193)
T8 chain: T1 chain with T3R, K53S, K60M

WT human IL-18 [8] = molecular target: T6, WT human IL-18; remark: listed apart in the source

WT IL-18-MonoFc (human), sequence (chain, as listed by the source): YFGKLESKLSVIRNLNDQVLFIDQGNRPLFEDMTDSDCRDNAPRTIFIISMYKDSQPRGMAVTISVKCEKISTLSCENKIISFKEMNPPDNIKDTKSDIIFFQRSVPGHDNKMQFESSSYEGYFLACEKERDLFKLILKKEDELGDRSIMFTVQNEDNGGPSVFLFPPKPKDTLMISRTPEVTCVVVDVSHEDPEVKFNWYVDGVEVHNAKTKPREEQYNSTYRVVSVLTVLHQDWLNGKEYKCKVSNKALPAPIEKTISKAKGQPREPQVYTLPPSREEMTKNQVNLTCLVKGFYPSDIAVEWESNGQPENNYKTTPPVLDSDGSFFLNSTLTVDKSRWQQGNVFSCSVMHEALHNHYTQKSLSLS

| Binder | Potency - with IL-18BP (IC50), IFN gamma expression in PBMCs (IL-18 variant G3T, M60K) | Potency - with IL-18BP (IC50), IFN gamma expression in PBMCs (IL-18 variant G3V, M60K) | Potency - with IL-18BP (IC50), IFN gamma expression in PBMCs (WT IL-18-MonoFc) | Potency - with IL-18BP (IC50), IFN gamma expression in PBMCs [1] | Potency - with IL-18BP (IC50), IFN gamma expression in PBMCs (IL-18 variant G3T, K53S) | Potency - with IL-18BP (IC50), IFN gamma expression in PBMCs [2] | Potency - with IL-18BP (IC50), IFN gamma expression in PBMCs (WT human IL-18 [3]) | Potency - with IL-18BP (IC50), IFN gamma expression in PBMCs (IL-18 variant G3E, K53S [4]) | IC50 (read off the curve); IFN gamma from human PBMCs, G3H/K53S/N91V at 1000 pM, human IL-18BP titrated; partial inhibition [5] | IC50 (read off the curve); IFN gamma from human PBMCs, WT IL-18 at 200 pM, human IL-18BP titrated (WT human IL-18 [6]) | IC50 (read off the curve); IFN gamma from human PBMCs, G3E/K53S at 2000 pM, human IL-18BP titrated; partial inhibition (IL-18 variant G3E, K53S [7]) | IC50 (read off the curve); IFN gamma from human PBMCs, G3R/K53S at 200 pM, mouse IL-18BP titrated; partial inhibition (IL-18 variant G3R, K53S) | IC50 (read off the curve); IFN gamma from human PBMCs, WT IL-18 at 200 pM, mouse IL-18BP titrated (WT human IL-18 [8]) |
| --- | --- | --- | --- | --- | --- | --- | --- | --- | --- | --- | --- | --- | --- |
| B1 | > 100 nM | > 100 nM | 0.096 nM | > 100 nM | 15.3 nM | 24.3 nM | 0.096 nM | 0.925 nM | ~20000 pM | ~100 pM | ~1000 pM | – | – |
| B2 | – | – | – | – | – | – | – | – | – | – | – | ~10000 pM | ~2000 pM |
